Results on one substance are retold here after article PMC3707205.

Broadly, the stoichiometry N is a count of units in the complex or per binding partner.

For the test, the target named is NHR2-mH (TAT- and NLS-free NHR2 protein). The test is described as follows: cross-linking; 20 μM protein in PBS, 0.01% glutaraldehyde, room temperature, various times; SDS-PAGE, coomassie staining.

Regarding “NHR2-mH (TAT- and NLS-free NHR2 protein) (domain or fragment)”, the stoichiometry N is 4.
